Consider 1 substance from article doi:10.1101/481713.

For test [1], the target named is human Broccoli Ndc80-GFP construct (human) (UniProt O14777).
Test [2] addresses Xenopus laevis CENP-E-GFP construct (1-473 aa) (Xenopus laevis). The test is described as follows: binding of microtubules to protein-coated beads seen by fluorescence microscopy.
Test [3] deals with human Broccoli Ndc80-GFP construct (human) (UniProt O14777). Described as above.

Chain of UniProt O14777 (O14777 whole entry, looked up, the tested form may be a part): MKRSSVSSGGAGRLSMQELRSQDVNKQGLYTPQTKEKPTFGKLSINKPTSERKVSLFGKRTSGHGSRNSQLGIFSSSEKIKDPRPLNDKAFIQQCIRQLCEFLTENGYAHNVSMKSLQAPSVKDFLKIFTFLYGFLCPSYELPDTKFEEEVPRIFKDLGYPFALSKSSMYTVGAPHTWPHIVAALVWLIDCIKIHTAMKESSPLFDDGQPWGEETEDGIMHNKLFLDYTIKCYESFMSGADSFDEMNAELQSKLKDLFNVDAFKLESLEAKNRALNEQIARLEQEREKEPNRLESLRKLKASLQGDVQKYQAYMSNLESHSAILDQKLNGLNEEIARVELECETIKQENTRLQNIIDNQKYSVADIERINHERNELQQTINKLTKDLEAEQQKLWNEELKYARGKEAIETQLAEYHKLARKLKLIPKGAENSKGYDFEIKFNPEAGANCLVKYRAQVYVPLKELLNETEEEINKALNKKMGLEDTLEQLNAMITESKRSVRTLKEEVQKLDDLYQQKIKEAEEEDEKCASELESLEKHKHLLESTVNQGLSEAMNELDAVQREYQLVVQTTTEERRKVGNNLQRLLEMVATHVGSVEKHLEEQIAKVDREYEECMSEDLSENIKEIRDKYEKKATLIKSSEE

“microtubules polymerised from bovine brain tubulin (from UniProt Q6B856 1-445) (complex)” gave a reduction of CENP-E motor gliding velocity on beads by the Ndc80 coating in test [1] of 4 fold. In test [2], the MT end-retention time came out at 1.1 min, the percent of MT plus-ends retained at the CENP-E–coated bead was found to be 24% and the time within which >80% of MTs detached (Kaplan–Meier) is less than 2.5 min. The substance also had a percent of MT segments attached via their ends to beads coated with Ndc80 alone in test [3] of 3%.
